From patent US20050249719

T1: 33-mer gliadin peptide LQLQPFPQPQLPYPQPQLPYPQPQLPYPQPQPF
T1 chain: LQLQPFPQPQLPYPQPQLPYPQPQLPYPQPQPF

T2: gliadin peptide PQPQLPYPQPQLP
T2 chain: PQPQLPYPQPQLP

B1: Flavobacterium meningosepticum prolyl endopeptidase (recombinant, expressed in E. coli) (protein)
chain: QNSNVLKYPETKKVSHTDTYFGTQVSDPYRWLEDDRAEDTKAWVQQEVKFTQDYLAQIPFRDQLKKQLMDIWNYEKISAPFKKGKYTYFSKNDGLQAQSVLYRKDAAGKTEVFLDPNKFSEKGTTSLASVSFNKKGTLVAYSISEGGSDWNKIIILDAETKKQLDETLLDVKFSGISWLGDEGFFYSSYDKPKEGSVLSGMTDKHKVYFHKLGTKQSQDELIIGGDKFPRRYIGAYVTDDQRYLVVSAANATNGNELYIKDLKNKTDFIPIITGFDSNVNVADTDGDTLYLFTDKDAPNKRLVKTTIQNPKAETWKDVIAETSEPLEINTGGGYFFATYMKDAIDQVKQYDKNGKLVRAIKLPGSGNASGFGGEKTEKDLYYSFTNYITPPTIFKYNVTTGNSEVYQKPKVKFNPENYVSEQVFYTSSDGTKIPMMISYKKGLKKDGKNPTILYSYGGFNISLQPAFSVVNAIWMENGGIYAVPNIRGGGEYGKKWHDAGTKMQKKNVFNDFIAAGEYLQKNGYTSKEYMALSGRSNGGLLVGATMTMRPDLAKVAFPGVGVLDMLRYNKFTAGAGWAYDYGTAEDSKEMFEYLKSYSPVHNVKAGTCYPSTMVITSDHDDRVVPAHSFKFGSELQAKQSCKNPILIRIETNAGHGAGRSTEQVVAENADLLSFALYEMGIKSLK
B2: human tissue transglutaminase (protein)
chain: AEELVLERCDLELETNGRDHHTADLCREKLVVRRGQPFWLTLHFEGRNYEASVDSLTFSVVTGPAPSQEAGTKARFPLRDAVEEGDWTATVVDQQDCTLSLQLTTPANAPIGLYRLSLEASTGYQGSSFVLGHFILLFNAWCPADAVYLDSEEERQEYVLTQQGFIYQGSAKFIKNIPWNFGQFEDGILDICLILLDVNPKFLKNAGRDCSRRSSPVYVGRVVSGMVNCNDDQGVLLGRWDNNYGDGVSPMSWIGSVDILRRWKNHGCQRVKYGQCWVFAAVACTVLRCLGIPTRVVTNYNSAHDQNSNLLIEYFRNEFGEIQGDKSEMIWNFHCWVESWMTRPDLQPGYEGWQALDPTPQEKSEGTYCCGPVPVRAIKEGDLSTKYDAPFVFAEVNADVVDWIQQDDGSVHKSINRSLIVGLKISTKSVGRDEREDITHTYKYPEGSSEEREAFTRANHLNKLAEKEETGMAMRIRVGQSMNMGSDFDVFAHITNNTAEEYVCRLLLCARTVSYNGILGPECGTKYLLNLNLEPFSEKSVPLCILYEKYRDCLTESNLIKVRALLVEPVINSYLLAERDLYLENPEIKIRILGEPKQKRKLVAEVSLQNPLPVALEGCTFTVEGAGLTEEQKTVEIPDPVEAGEEVKVRMDLLPLHMGLHKLVVNFESDKLKAVKGFRNVIIGPA

How the values were obtained:
[1] = biological target: T1, 33-mer gliadin peptide …
[2] = biological target: T2, gliadin peptide PQPQLPYPQPQLP

| Protein | competitive proteolysis of the 13-mer and the 33-mer [1] | initial rate on the 33-mer, fold against MX PEP [1] | initial rate on the 33-mer, fold against SC PEP [1] | rate of substrate (33-mer+32-mer) disappearance [1] | time to hydrolyze 10 µM of the 33-mer with 0.1 µM enzyme [1] | Kcat/KM [2] [mM^-1/s^-1] | competitive proteolysis of the 13-mer and the 33-mer [2] | kcat/KM of deamidation [1] |
| --- | --- | --- | --- | --- | --- | --- | --- | --- |
| B1 | showed comparable selectivity for both peptides | 5-fold faster on the 33-mer than the MX PEP | >20 fold faster than the SC PEP | 2.3 µM/min (FM PEP) | in about 2-3 minutes | 178 | showed comparable selectivity for both peptides |  |
| B2 |  |  |  |  |  |  |  | kcat/KM=440 min-1 mM-1 |
